pKd: −log10 of the molar value.
Legend:
[1] = molecular target: recombinant Mouse VEGF164 (mouse) (UniProt Q00731); assay: SPR (Biacore T100); monomeric scFv over 1000 RU mouse VEGF164 on a CM5 chip; 1:1 fit
PlGF = assay: indirect ELISA on coated growth factor; 2C3 at 1.0 ug/ml
VEGF-D = assay: as above
human VEGF-A (human) [2] = molecular target: human VEGF-A (human) (UniProt P15692); assay: as above
VEGF-C = assay: as above
[3] = molecular target: mouse VEGF (isoform not given) (mouse) (UniProt Q00731); assay: as above
VEGF-B = assay: as above
human VEGF-A (human) [4] = molecular target: human VEGF-A (human) (UniProt P15692); assay: SPR (Biacore T100); IgG over 100 RU human VEGF-A on a CM5 chip; 1:1 fit; 25°C
human VEGF-A (human) [5] = molecular target: human VEGF-A (human) (UniProt P15692); assay: SPR (Biacore T100); IgG over 100 RU human VEGF-A on a CM5 chip; 1:1 fit; 37°C

Sequence of human VEGF-A (human) (P15692 other isoform, or with tags, fused parts or gaps limits assumed): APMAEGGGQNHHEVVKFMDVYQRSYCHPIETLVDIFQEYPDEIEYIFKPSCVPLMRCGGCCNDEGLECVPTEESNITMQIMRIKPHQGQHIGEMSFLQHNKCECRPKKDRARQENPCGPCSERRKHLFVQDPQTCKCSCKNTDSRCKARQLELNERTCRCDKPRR
Sequence of mouse VEGF (isoform not given) (mouse) (Q00731 other isoform, or with tags, fused parts or gaps limits assumed): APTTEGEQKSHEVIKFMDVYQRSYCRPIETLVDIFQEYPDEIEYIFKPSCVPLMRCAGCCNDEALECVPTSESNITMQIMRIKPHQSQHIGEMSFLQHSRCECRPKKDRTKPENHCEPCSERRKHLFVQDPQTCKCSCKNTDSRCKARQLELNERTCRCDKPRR

Substance	pKd [1]	mean absorbance (absorbance at 450 nM) (PlGF)	mean absorbance (absorbance at 450 nM) (VEGF-D)	mean absorbance (absorbance at 450 nM) (human VEGF-A (human) [2])	mean absorbance (absorbance at 450 nM) (VEGF-C)	mean absorbance (absorbance at 450 nM) [3]	mean absorbance (absorbance at 450 nM) (VEGF-B)	pKd (human VEGF-A (human) [4])	pKd (human VEGF-A (human) [5])
EJ173/112-C11 (r84/PGN311) scFv	8.00	–	–	–	–	–	–	–	–
murine 2C3 anti-VEGF antibody (IgG)	–	0.1	0.12	3.07	0.09	0.09	0.09	7.91	6.50

— patent US20120064001A1
